In the DeepSol protein solubility set:

Assay: soluble on expression in E. coli; label from the status in PepcDB or PDB records

Row | Sequence | soluble on expression in E. coli
1 | MVVAFLIGAGGMFAGMSLFGVNPAEVTQTISSGNASTAQGNLAKINEAYALIDSRYVEDVKDEKLVEGAIQGMLSTLKDPYSTYMDKETAKQFSESLDPELEGIGAEVNKTDGKLIIVSPIKGSPAEKIGIKPNDQILSVDGNSVKDLSREEAVLKIRGKKGTTVAIEIKRAGVADPIVFKIKREKIPIFTVFSSVKQESGKDIGYMQITSFAENTAKEFKDQLKELEKKNIKGLVIDVRGNPGGYLNSVEEILGEIMTDKKPMLQVEQRNGEKKKFSTELKERKPYPISVLIDNGSASASEILAGALKEGEGYDLIGEKTFGKGTVQQAVPFKDGSNIKLTMFKWLTPDGNWIHKKGIKPTVEVKQPDYYHATPIQIEKTLSYNANDVQVKHAQEMLKSLGYVPGREDGYFSKETESALKAFQNANKMEATGQLDKKTAEAIQTKIIEKIRSGENDLQLQSALKLMAK | not soluble
2 | PQTLYQKLVETHTVARLDSQNVLLYADLHIMNEYTSPQAFAGLAEAGRTVLQPGQNVSVVDHIIPTHPVAIRIIEEPNSALQASNLKKNCERHGIPLFDANNRFQGIEHVIAPELGMIRPGMVVLCGDSHTTTYGALGALGFGIGTSEVEHVLATQTLVYRLAPT | not soluble
3 | METFYTIGRSPRADIRIKSQFVSRIHAVLVRKSSDDVQAAYRIIDGDEDGQSSVNGLMINGKKVQEHIIQTGDEIVMGLEHHHHHH | not soluble
4 | MPLEASELKPTAGPLEASELKPTAGPLEASELKPTAGPLEASELKPTAGPLEASELKPTAGPLEASELKPTAGPLEASELKPTAGMFKNAKEFVQYANKLKTLREKKLNGVSIYVCVGTGCTAKGALKVYSAFEEELKKRNLLGQVTLEKIDDDKVTLNRTGCCGRCSSGPLVKIMPYRFFYSNVAPEDVPEIVDRTVLKGEPIERLFLTDPLTGEKVPRIEDTTLFKNQDFYIMEAIGESECDSIEDYIARSGYESLVKALTSMTPEEIIETVKASGLRGRGGGGFPTGLKWEFTRKAQGDIKFVVCNGDEGDPGAFMNRTLLERDPHLVLEGMIIAGYAVGAQKGYAYIRAEYPFAVKMFKKAIEDARKLGLLGENILGTGFSFDLEVKEGAGAFVCGEETALLASIEGKRGMPRPKPPFPAQSGLWGKPTLINNVETYANIPRILRDGVENYRKRGTENSPGTKMFSVAGPLKATGIIEVEFGTTLRDIIYNICGGFVEGEEFKAVQIGGPSGACLSEDFIDMPLDYDTLKKADAMVGSGGIVVITKKTCMVEVARFFLDFTKRESCGKCVPCREGTMQAYNILEKFTHGKATYEDLKTLEHLSKTIKTASLCGLGKTAPNPILSTLKLFREEYIAHIEGECPSGMCTAFKKYVINPDICKGCGLCARSCPQNAITGERGKPYTIDQEKCVKCGLCASKCPFKAIELVAAALEHHHHHH | not soluble
5 | MNTREVELRGHIIDSLILPRALDIIMDMGGDFQILEIDIGKRKSDPSHARILVEAETPSLLNQILDELGEIGASIAEIKEAELRRAPMDRVLPDDFYSTTNHQTFIYHGGEWVEVEGIEMDCMIVVDPESRTARCKPIREIKKGDLVVVGREGIKVVPPERPRGKQGVFEFMGSEVSSEKPLVTTIKKIASEITEIKKRGGRIGLVGGPAIVHTGSAPVIAEMIRLGFIDVLFAGNALATHDIECALYGTSLGVDIDRGEAVSRGHRHHINAINEINRAGSIRDAVEQGVLTSGIMYECVKNDVPFVLAGSIRDDGPLPDVITDVMEAQNEMRKYVQDLDMVIMIATMLHSIATGNILPSRVKTICVDINPATVTKLSDRGSSQAVSVVTDVGAFIPILLHEIKKMNGLGDLEHHHHHH | soluble
6 | SVEDELALFDKSINEFWNKFKSTDTSCQMAGLRDTYKDSIKAFAEKLSVKLKEEERMVEMFLEYQNQISRQNKLIQEKKDNLLKLIAEVKGKKQELEVLTANIQDLKEEYSRKKETISTANKANAERLKRLQKSADLYKDRLGLEIRKIYGEKLQFIFTNIDPKNPESPFMFSLHLNEARDYEVSDSAPHLEGLAEFQENVRKTNNFSAFLANVRKAFTATVYN | soluble
7 | MAHHHHHHMKYMPQRPCIGICQGCWTVQLGGVNQYIQIWRYENLKHRYDCRKQVEQDQEWLRTYVKPADDMMISKSNTLLRLVYREGNASTQSYKYLMQVSPHKEVELSGPSATLAATFQVIVGEEEGKYIHLVKGHKLDDVIPVTPTLGCSSKIMGPVRWSSTMNCLWR | not soluble
8 | MDSRVWLPLIGAHLLPRDISVITQMIANNNNTSISRSSTNSSKPEEKNSKKFLIERFLDDDPSPPASILSPSPKAAIPSPIINPAVEFVNGGYGVKNPLAPLISSFETTSIPCSTVSPSSLISSSKDEFQDSLTCHICGKKFGLQRLLNRHIKCHSDLKRYLCTFCGKGFNDTFDLKRHTRTHTGVRPYKCEQCEKSFTQRCSLESHLRKVHGVTHQYAYKERRSKVFVCEDCGYTDEKFEVYLSHIKVVHPFSAAYLRFTQLQKKNSSMKPEQLSKISL | not soluble
9 | MAAPKLGFFEKIANLTGALYRHQHAQFPRRFAILKAVGKHELAPPRQADWPAIKADWAKVQSFIQTGGYKNLSIREGLVYTAVTLEVVFWFFVGEMIGRRYIFGYLVPADYVSKSTKKTVKEQEALAALEN | not soluble
10 | MYSISFQEDSLLPRERLAKEGVEALSNQELLAILLRTGTRQASVFEIAQKVLNNLSSLTDLKKMTLQELQSLSGIGRVKAIELQAMIELGHRIHKHETLEMESILSSQKLAKKMQQELGDKKQEHLVALYLNTQNQIIHQQTIFIGSVTRSIAEPREILHYAIKHMATSLILVHNHPSGAVAPSQNDDHVTKLVKEACELMGIVLLDHLIVSHSNYFSYREKTDLI | not soluble
11 | MGHHHHHHSHMEKALLGACDCTQIVKPSGVHLKLVLRFSDFGKAMFKPMRQQRDEETPVDFFYFIDFQRHNAEIAAFHLDRILDFRRVPPTVGRIVNVTKEILEVTKNEILQSVFFVSPASNVCFFAKCPYMCKTEYAVCGNPHLLEGSLSAFLPSLNLAPRLSVPNPWIRSYTLAGKEEWEVNPLYCDTVKQIYPYNNSQRLLNVIDMAIFDFLIGNMDRHHYEMFTKFGDDGFLIHLDNARGFGRHSHDEISILSPLSQCCMIKKKTLLHLQLLAQADYRLSDVMRESLLEDQLSPVLTEPHLLALDRRLQTILRTVEGCIVAHGQQSVIV | soluble
12 | AFVQEPLPFDPGALEPYGMSAKTLEFHYGKHHKGYVDNLNKLTQDTELADKSLEDVIRTTYGDAAKVGIFNNAAQVWNHTFFWNSLKPGGGGVPTGDVAARINSAFGSYDEFKAQFKNAAATQFGSGWAWLVLEAGTLKVTKTANAENPLVHGQVPLLTIDVWEHAYYLDYQNRRPDFIDNFLNQLVNWDFVAKNLAAA | soluble
13 | MTGSQVIDAEEDRHKLVVEYKDALQPADFYHNFKQRGIRSVQLIPYLEFDDRGDLTAASVTAELWGKFLIALFECWVRADISRISIELFDATLQKWCGSENPQPRCDCQACDWHRLCPHARQETPDSVLCAGYQAFYSYSAPHMRVMRDLIKQHRSPMELMTMLR | not soluble
14 | MHHHHHHSSGVDLGTENLYFQSMSFAVGMFKGQLTTDQVFPYPSVLNEEQTQFLKELVEPVSRFFEEVNDPAKNDALEMVEETTWQGLKELGAFGLQVPSELGGVGLCNTQYARLVEIVGMHDLGVGITLGAHQSIGFKGILLFGTKAQKEKYLPKLASGETVAAFCLTEPSSGSDAASIRTSAVPSPCGKYYTLNGSKLWISNGGLADIFTVFAKTPVTDPATGAVKEKITAFVVERGFGGITHGPPEKKMGIKASNTAEVFFDGVRVPSENVLGEVGSGFKVAMHILNNGRFGMAAALAGTMRGIIAKAVDHATNRTQFGEKIHNFGLIQEKLARMVMLQYVTESMAYMVSANMDQGATDFQIEAAISKIFGSEAAWKVTDECIQIMGGMGFMKEPGVERVLRDLRIFRIFEGTNDILRLFVALQGCMDKGKELSGLGSALKNPFGNAGLLLGEAGKQLRRRAGLGSGLSLSGLVHPELSRSGELAVRALEQFATVVEAKLIKHKKGIVNEQFLLQRLADGAIDLYAMVVVLSRASRSLSEGHPTAQHEKMLCDTWCIEAAARIREGMAALQSDPWQQELYRNFKSISKALVERGGVVTSNPLGF | soluble
15 | MAKPIMAKATAVWLVDNTTLSFKQIADFVGMHELEVQGIADGDVAQGVKGFDPIANNQLTQDEIDTAQNNPLHKLKLKFNAAAQGEEKRRGPRYTPLSKRQDRPASILWLVKFHPELTDGQISKLIGTTKPTIQAIRERTHWNISNIQPIDPVALGLCKQSELDMAVQKAAAKKAADAPVMLEHHHHHH | soluble
16 | MESEFLYDLLQLPKEVAQPTEEELPRGGKKKYLSPNSKRNPKFEELQKVLMEWINTTLLPEHIVVRSLEEDMFDGLILHHLFQKLASLKLEVEEISLTSASQRHKLGVILEAVNQNLQVEEKQAKWSVETIFNKDLLATLHLLVALAKRFQPDLPLPDNVQVEVIHIESTKTGLKSDKQVEQLTECKSHKDQPLQDAFDELFKLAPEKVHAVQEAIVSFVNQKLERLGLSVQSLDTQFADGVILLLLIGQLEGFFLHLTEFYLTPSSPTEMLHNVTLALDLLKDEGLFSYPVNPEDIVNKDAKSTLRILYSLFQKHSLRAEGGGAHHATPN | soluble
17 | MMKTLLPFFGVVRVSGEDRQTFLHGQLSNDINNLQTGQACYATYNTPKGRVIANMIVVNRGGDLLLIMAQDLLEATVKRLRMFVLRAKAVFEILEDYAVGAELEASAEPLAAQEPNLAFAAQQDSDGICSIALPHGGILRIAPKNTLPPYDAAAENAWRLHEIRSGYPWICAATKETAVAQMLNQHIIGGVHFKKGCYPGQEIIARAQYRGQVKRGLAVLSGNSAAEAGSVLAADGEEAGIVLDSVQDSENFTALAVIKFSAAQKELTVPNGGIFKAVHLFFKTENAELEHHHHHH | soluble
18 | MRDALLGALDAGAVCVNVDLAHAGQQAKLEPDTPYGDALGVGAGRNWAHVNSIAYDAKDDSIILSSRHQGIVKIGRDKQVKWILAPSKGWNKQLASKLLKPVDDHGKPLTCDENGKCKDTDFDFTYTQHTAWLSSKGTLTVFDNGDGRGLEQPALPTMKYSRFVEYKIDEKKGTVQQVWEYGKERGYDFYSPITSVVEYQKDRDTMFGFGGSINLFDVGKPTVGKLNEIDYKTKEVKVEIDVLSDKPNQTHYRALLVHPTQMFKLEHHHHHH | soluble
19 | MGSDKIHHHHHHMSRPKVIVTIAPTGGMASKQQNPHLPTQPEEIASDVYDCYNAGASVVAVHARRPDDGATCDAAIYRDINTRIRAKCDIVINNSTGGGVHGEMIGQASNGYWEILWEERLKGMDAGAELCTLDATTIIATFGGKELLMHTSPERSKHLAVEMKKRGIKPEWEVFSPTHIVQDVAALTAAGFDEEPFFINLVLGVHRNFQNAMPYSPRVLQSMVDLLPKGSIFCVSGIGPAQLPSAMNSLLLGGHVRVGLEDNLYYSAGELATNVQLVERVVRLVREMGYEPATPREAREIMGLPRSSGPRPDFAMQ | not soluble
20 | MKWLRLQDLPTDNSFAALPAEFYTRLQPRPPAAPRLLHANAEAAALIGLDPAEFSTQAFLDVFSGHAPLPGGDTLAAVYSGHQFGVWAGQLGEVRGPAGGWELQLKGAGMTPYSRMGDGRAVLRSSVREYLASEAMHGLGIPTTRSLALVVSDDPVMRETVETAAVVTRMAPSFVRFGSFEHWSARRQPEQLRVLADYVIDRFYPECRVAGAGRLDGEHGEILGLLAAVTRRTALLMADWQAVGFCHGVMNTDNMSILGLTLDYGPYGFMDTFQLGHICNHSDSEGRYAWNRQPSVGLWNLYRLASSLHTLAPDPEALRAVLDGYEAVFTQAFHGRMAGKLGLPQFLPEDETLLDDLLQLMHQQGADFTLAFRRLGEAVRGQRQPFEDSFIDRAAAGAWYDRLAARHASDGRAAQARAAAMDEVNPLYVLRNHLAEQAIRAAARGDAGEIDILLKLLRNPYKHQPGYDAYAGLAPDWAAGLEVSCSSLEHHHHHH | not soluble
